What was measured:
PhnX = PhnX (Vibrio splendidus, UniProt A0ABV4LR11); assay: 1H NMR, disappearance of PAA; type: biochemical; conditions: PAA generated in situ by PhnW or PbfA; 50 mM potassium phosphate pH 8.0, 100 mM KCl, 5 mM MgCl2, 25 °C
NC[C@H](O)P(=O)(O)O = assay: purified protein; conditions: TEA-HCl pH 8.0, 25 °C, 5 mM MgCl2, 5 μM PLP, 0.07% BSA, 1,2-elimination

Compound | 1H NMR, disappearance of PAA (PhnX) | Km (NC[C@H](O)P(=O)(O)O) | kcat (NC[C@H](O)P(=O)(O)O)
O=CCP(=O)(O)O [PAA] | Addition of PhnX (blue) led to disappearance of PAA | – | –
PbfA (Vibrio splendidus 12B01) | – | 430 ± 60 µM | 5.3 ± 0.3 s^–1
